Experimental data as given in article PMC6019379, “RecA-like domain 2 of DNA-dependent ATPase A domain, a SWI2/SNF2 protein, mediates conformational integrity and ATP hydrolysis” (Bioscience Reports, 2018).
Residue numbers refer to the chain shown, from its start.

Columns and labels:
Conditions in all cases: protein: recombinant; tags: His (Ni-NTA, pET-14b); hairpin
ADAAD R592A = biological target: T1, ADAAD R592A (Bos taurus (bovine), UniProt Q9TTA5 221-940, R812A); experiment: intrinsic tryptophan fluorescence titration; no ATP; Fluorescence titration (ex 295 nm, em 340 nm), one-site saturation fit; buffer, salt, pH and temperature not given in the material. Wild-type ADAAD Kd values are cited from ref 24 and not listed
T1 sequence: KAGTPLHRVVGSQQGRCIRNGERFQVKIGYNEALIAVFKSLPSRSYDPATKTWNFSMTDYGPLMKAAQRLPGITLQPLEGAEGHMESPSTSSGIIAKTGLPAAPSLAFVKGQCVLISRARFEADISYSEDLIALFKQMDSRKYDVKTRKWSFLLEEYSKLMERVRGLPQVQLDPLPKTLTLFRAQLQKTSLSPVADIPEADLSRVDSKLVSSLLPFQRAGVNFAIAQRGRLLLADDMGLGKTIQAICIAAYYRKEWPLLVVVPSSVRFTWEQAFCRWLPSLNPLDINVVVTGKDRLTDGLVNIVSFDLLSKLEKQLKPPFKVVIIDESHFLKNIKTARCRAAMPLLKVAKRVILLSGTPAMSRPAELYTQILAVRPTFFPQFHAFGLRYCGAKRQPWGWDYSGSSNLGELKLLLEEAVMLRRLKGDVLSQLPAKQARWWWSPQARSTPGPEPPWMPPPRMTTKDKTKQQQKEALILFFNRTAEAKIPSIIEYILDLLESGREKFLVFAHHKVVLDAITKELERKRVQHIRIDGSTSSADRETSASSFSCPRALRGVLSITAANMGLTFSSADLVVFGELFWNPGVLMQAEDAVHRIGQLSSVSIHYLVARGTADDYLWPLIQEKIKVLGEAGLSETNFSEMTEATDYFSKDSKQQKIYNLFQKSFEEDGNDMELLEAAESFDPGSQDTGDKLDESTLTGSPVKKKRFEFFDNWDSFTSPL

ADAAD R595K = biological target: T2, ADAAD R595K (Bos taurus (bovine), UniProt Q9TTA5 221-940, R815K); experiment: as above
T2 sequence: T1 sequence with A592R, R595K

ADAAD T560A = biological target: T3, ADAAD T560A (Bos taurus (bovine), UniProt Q9TTA5 221-940, T780A); experiment: intrinsic tryptophan fluorescence titration; saturating ATP; Fluorescence titration (ex 295 nm, em 340 nm), one-site saturation fit; buffer, salt, pH and temperature not given in the material. Wild-type ADAAD Kd values are cited from ref 24 and not listed
T3 sequence: T1 sequence with T560A, A592R

GCGCAATTGCGCTCGACGATTTTTTAGCGCAATTGCGC (structured_DNA) [slDNA (stem-loop DNA)]
Kd (ADAAD R592A): 31.5 ± 1.3 nM | Kd (ADAAD R595K): 25.1 ± 7.4 nM | Kd (ADAAD T560A): 1.4 ± 0.3 nM
